The results in this text go back to patent US20080026996A1, “Selective Vpac2 Receptor Reptide Agonists” (ELI LILLY AND COMPANY, priority 2004, published 2008).

Where no end group is shown, it is not given here. [ ]: non-standard residue; d: D form. The star is where a group is joined. Hexanoyl = CCCCCC(=O)*; Aib = CC(C)(N)C(=O)O

Experiment in all cases: cell-based or functional assay
The target in one assay is T1, rat VPAC2 receptor (rat, UniProt P35000 23-437).
T1 sequence (looked up): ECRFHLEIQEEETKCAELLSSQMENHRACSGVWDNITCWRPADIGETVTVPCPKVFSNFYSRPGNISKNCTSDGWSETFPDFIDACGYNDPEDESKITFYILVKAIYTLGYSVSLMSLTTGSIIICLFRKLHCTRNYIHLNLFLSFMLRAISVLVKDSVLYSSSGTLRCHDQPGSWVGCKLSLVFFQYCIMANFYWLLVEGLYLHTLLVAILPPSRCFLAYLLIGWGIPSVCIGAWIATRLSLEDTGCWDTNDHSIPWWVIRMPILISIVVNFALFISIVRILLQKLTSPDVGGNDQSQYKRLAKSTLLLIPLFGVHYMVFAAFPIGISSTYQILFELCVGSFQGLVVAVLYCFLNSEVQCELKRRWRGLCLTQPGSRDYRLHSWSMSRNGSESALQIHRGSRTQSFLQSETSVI

The target in the next assay is T2, human VPAC2 receptor (human, UniProt P41587 24-438).
T2 sequence (looked up): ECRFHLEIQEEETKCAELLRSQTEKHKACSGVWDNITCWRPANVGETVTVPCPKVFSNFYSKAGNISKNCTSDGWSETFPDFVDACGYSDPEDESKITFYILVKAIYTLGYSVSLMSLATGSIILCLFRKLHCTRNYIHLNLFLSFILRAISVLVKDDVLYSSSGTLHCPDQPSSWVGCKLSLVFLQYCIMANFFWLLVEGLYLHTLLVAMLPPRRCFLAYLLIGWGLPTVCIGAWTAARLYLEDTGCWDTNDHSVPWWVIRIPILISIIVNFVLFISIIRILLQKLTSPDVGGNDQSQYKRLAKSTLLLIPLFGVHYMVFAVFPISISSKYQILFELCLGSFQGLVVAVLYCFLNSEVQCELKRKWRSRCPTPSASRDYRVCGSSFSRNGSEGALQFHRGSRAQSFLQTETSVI

The target of a further assay is T3, rat VPAC1 receptor (rat, UniProt P30083 31-459).
T3 sequence (looked up): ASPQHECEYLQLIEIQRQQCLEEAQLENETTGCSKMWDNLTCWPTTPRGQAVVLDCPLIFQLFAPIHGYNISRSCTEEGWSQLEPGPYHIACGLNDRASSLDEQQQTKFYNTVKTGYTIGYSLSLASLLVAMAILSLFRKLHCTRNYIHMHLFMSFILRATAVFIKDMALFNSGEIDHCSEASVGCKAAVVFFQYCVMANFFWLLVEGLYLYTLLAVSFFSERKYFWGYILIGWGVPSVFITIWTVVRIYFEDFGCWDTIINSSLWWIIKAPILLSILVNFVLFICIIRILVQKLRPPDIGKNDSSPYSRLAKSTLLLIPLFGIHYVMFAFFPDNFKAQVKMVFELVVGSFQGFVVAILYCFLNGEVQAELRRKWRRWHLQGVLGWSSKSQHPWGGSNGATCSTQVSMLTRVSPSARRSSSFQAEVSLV

Consider Hexanoyl-HSDAVFTDNYTRLLAKVAAKKYLQSIKNKRYGGPSSGAPPPS [P135], for which, in the assay with rat VPAC2 receptor, the “EC50 cAMP, DiscoveRx” value came out at 0.05 nM. Further, the “EC50 cAMP, Alpha Screen” value in the assay with human VPAC2 receptor came to 0.18 nM.

For Hexanoyl-HSDAVFTDNYTRLRKQVAAQKYLQSIKNKRYGGPSSGAPPPS [P150], the “EC50 cAMP, DiscoveRx” value in the assay with rat VPAC2 receptor came to 0.1 nM. In addition, the “EC50 cAMP, Alpha Screen” value in the assay with human VPAC2 receptor stood at 0.18 nM.

As for Hexanoyl-HGEGTFTDNYTRLRKQVAAKKYLQSIKNKRYGGPSSGAPPPS [P222], the “EC50 cAMP, DiscoveRx” value with rat VPAC2 receptor turned out to be 34.9 nM; with rat VPAC1 receptor, 43.9 nM. Further, in the assay with human VPAC2 receptor, the “EC50 cAMP, Alpha Screen” value was determined as 0.51 nM.

With Hexanoyl-HSDAVFTDNYTRLRQQVAAKKYLQSIKNKRYGGPSSGAPPPS [P177], the “EC50 cAMP, DiscoveRx” value in the assay with rat VPAC2 receptor is 0.1 nM. Moreover, the “EC50 cAMP, Alpha Screen” value in the assay with human VPAC2 receptor was 0.21 nM.

As for Hexanoyl-HSDAVFTDNYTRLQKQVAAKKYLQSIKNKRYGGPSSGAPPPS [P172], the “EC50 cAMP, DiscoveRx” value with rat VPAC2 receptor is 0.11 nM. In the assay with human VPAC2 receptor, the “EC50 cAMP, Alpha Screen” value worked out at 0.29 nM.

As to Hexanoyl-HSDAVFTDNYTRL[Aib]KQVAAK[Aib]YLQSIKNKRYGGPSSGAPPPS (ends and bridges not checked) [P244], the results for the “EC50 cAMP, DiscoveRx” value with rat VPAC2 receptor and with rat VPAC1 receptor were 1.85 nM and 127 nM, respectively. The “EC50 cAMP, Alpha Screen” value in the assay with human VPAC2 receptor came to 2.03 nM.

As to Hexanoyl-HSDAVFTDNYTRL[Aib]KQLAA[Aib]KYLQSIKNKRYGGPSSGAPPPS (ends and bridges not checked) [P240], the “EC50 cAMP, DiscoveRx” value with rat VPAC2 receptor is 0.36 nM; with rat VPAC1 receptor it was 24.5 nM. Moreover, the “EC50 cAMP, Alpha Screen” value with human VPAC2 receptor was found to be 0.51 nM.

For Hexanoyl-HSDAVFTDNYTRL[Aib]KQVAA[Aib]KYLQSIKNKRYGGPSSGAPPPS (ends and bridges not checked) [P242], the “EC50 cAMP, DiscoveRx” value in the assay with rat VPAC2 receptor turned out to be 0.46 nM; with rat VPAC1 receptor, 72.2 nM. Also, the “EC50 cAMP, Alpha Screen” value with human VPAC2 receptor was found to be 0.8 nM.

On to Hexanoyl-HSDAVFTDNYTRL[Aib]KQVAAKKYLQSIKNKRYGGPSSGAPPPS (ends and bridges not checked) [P167], for which the “EC50 cAMP, DiscoveRx” value with rat VPAC2 receptor amounted to 0.24 nM; with rat VPAC1 receptor, 6.88 nM. In addition, in the assay with human VPAC2 receptor, the “EC50 cAMP, Alpha Screen” value came to 0.17 nM.

In the case of Hexanoyl-HSDAVFTDNYTRL[Aib]KQVAAQKYLQSIKNKRYGGPSSGAPPPS (ends and bridges not checked) [P243], the “EC50 cAMP, DiscoveRx” value in the assay with rat VPAC2 receptor was found to be 0.79 nM; with rat VPAC1 receptor, 157 nM. Further, the “EC50 cAMP, Alpha Screen” value in the assay with human VPAC2 receptor came out at 0.28 nM.

Consider Hexanoyl-HSDAVFTDNYTRLR[Aib]QVAAK[Aib]YLQSIKNKRYGGPSSGAPPPS (ends and bridges not checked) [P264], for which the “EC50 cAMP, DiscoveRx” value came to 0.1 nM with rat VPAC2 receptor and 4.01 nM with rat VPAC1 receptor. For the same molecule, the “EC50 cAMP, Alpha Screen” value in the assay with human VPAC2 receptor is 0.1 nM.

As to Hexanoyl-HSDAVFTDNYTRLR[Aib]QLAAK[Aib]YLQSIKNKRYGGPSSGAPPPS (ends and bridges not checked) [P284], the “EC50 cAMP, DiscoveRx” value came out at 0.07 nM with rat VPAC2 receptor and 0.44 nM with rat VPAC1 receptor. The “EC50 cAMP, Alpha Screen” value with human VPAC2 receptor amounted to 0.18 nM.

Take Hexanoyl-HSDAVFTDNYTRLR[Aib]QVAAKKYLQSIKNKRYGGPSSGAPPPS (ends and bridges not checked) [P168]: in the assay with rat VPAC2 receptor, the “EC50 cAMP, DiscoveRx” value was 0.05 nM. Besides, the “EC50 cAMP, Alpha Screen” value with human VPAC2 receptor was 0.27 nM.

For the molecule Hexanoyl-HSEAVFTENYTRLR[Aib]QVAA[Aib]KYLQSIKNKRYGGPSSGAPPPS (ends and bridges not checked) [P314], the “EC50 cAMP, DiscoveRx” value in the assay with rat VPAC2 receptor was determined as 0.12 nM; with rat VPAC1 receptor it was 29.2 nM. Further, in the assay with human VPAC2 receptor, the “EC50 cAMP, Alpha Screen” value worked out at 0.22 nM.

Take Hexanoyl-HSDAVFTDQYTRLR[Aib]QVAA[Aib]KYLQSIKQKRYGGPSSGAPPPS (ends and bridges not checked) [P315]: the “EC50 cAMP, DiscoveRx” value was 0.04 nM with rat VPAC2 receptor and 1.18 nM in the assay with rat VPAC1 receptor. Moreover, the “EC50 cAMP, Alpha Screen” value with human VPAC2 receptor turned out to be 0.19 nM.

In the case of Hexanoyl-HSDAVFTDNYTRLK[Aib]QVAA[Aib]KYLQSIKNKRYGGPSSGAPPPS (ends and bridges not checked) [P318], the “EC50 cAMP, DiscoveRx” value with rat VPAC2 receptor came to 0.09 nM; with rat VPAC1 receptor it was 9.96 nM. The “EC50 cAMP, Alpha Screen” value with human VPAC2 receptor worked out at 0.32 nM.

Consider Hexanoyl-HSDAVFTDNYTRLR[Aib]QIAA[Aib]KYLQSIKNKRYGGPSSGAPPPS (ends and bridges not checked) [P322], for which the “EC50 cAMP, DiscoveRx” value amounted to 0.04 nM with rat VPAC2 receptor and 0.5 nM in the assay with rat VPAC1 receptor. For the same molecule, the “EC50 cAMP, Alpha Screen” value with human VPAC2 receptor was 0.22 nM.

On to Hexanoyl-HSDAVFTDNYTRLR[Aib]QKAA[Aib]KYLQSIKNKRYGGPSSGAPPPS (ends and bridges not checked) [P323], for which the “EC50 cAMP, DiscoveRx” value with rat VPAC2 receptor was determined as 0.07 nM; in the assay with rat VPAC1 receptor, 4.41 nM. Moreover, the “EC50 cAMP, Alpha Screen” value with human VPAC2 receptor is 0.23 nM.

On to Hexanoyl-HSDAVFTDNYTRLR[Aib]KVAA[Aib]KYLQSIKNKRYGGPSSGAPPPS (ends and bridges not checked) [P321], for which the entries for the “EC50 cAMP, DiscoveRx” value with rat VPAC2 receptor and in the assay with rat VPAC1 receptor were 0.04 nM and 0.11 nM, respectively. Besides, the “EC50 cAMP, Alpha Screen” value with human VPAC2 receptor worked out at 0.38 nM.

Consider Hexanoyl-HSDAVFTDNYTRLRKQVAAK[Aib]YLQSIKNKRYGGPSSGAPPPS (ends and bridges not checked) [P170], for which the “EC50 cAMP, DiscoveRx” value in the assay with rat VPAC2 receptor came out at 0.15 nM. In addition, the “EC50 cAMP, Alpha Screen” value with human VPAC2 receptor is 0.18 nM.

For Hexanoyl-HSDAVFTDNYTRLRKQVAA[Aib]KYLQSIKNKRYGGPSSGAPPPS (ends and bridges not checked) [P169], the “EC50 cAMP, DiscoveRx” value with rat VPAC2 receptor came to 0.07 nM; in the assay with rat VPAC1 receptor, 1.32 nM. The “EC50 cAMP, Alpha Screen” value with human VPAC2 receptor came to 0.14 nM.

Turning to HSDAVFTDNYTXLRXQVAAXKYLQSIXNXGGPSSGAPPPS (N-terminal hexanoyl (C6); hR at 12, 27, 29; Aib at 15, 20) [P329], in the assay with rat VPAC2 receptor, the “EC50 cAMP, DiscoveRx” value was found to be 0.15 nM.

For the molecule HSDAVFTDNYTXLRXQVAAXKYLQSIXXGGPSSGAPPPS (N-terminal hexanoyl (C6); Orn at 12; Aib at 15, 20; hR at 27, 28) [P335], in the assay with rat VPAC2 receptor, the “EC50 cAMP, DiscoveRx” value was 0.05 nM. In the assay with human VPAC2 receptor, the “EC50 cAMP, Alpha Screen” value came out at 0.22 nM.
